Assays:
[1] = biological target: CpCdc13AB-DBD complex (Candida parapsilosis) (UniProt G8B7U9+G8B5A5); experiment: EMSA; conditions: stated as full-length Kd (~10 nM) at least 100-fold lower; weak shift detected; EMSA: 50 mM Tris-HCl pH 7.5, 2 mM MgCl2, 10 mM NaCl, 1 mM spermidine, 1 mM DTT, 200 ng/ul poly(dI-dC), 5% glycerol, 25 C 60 min; crosslinking: same buffer …
[2] = biological target: T1, CpCdc13AB heterodimer: His6-SUMO-Cdc13A + GST-Cdc13B-FLAG (Candida parapsilosis, UniProt G8B7U9;G8B5A5 1-456;1-475); experiment: competition; no effect; EMSA: 50 mM Tris-HCl pH 7.5, 2 mM MgCl2, 10 mM NaCl, 1 mM spermidine, 1 mM DTT, 200 ng/ul poly(dI-dC), 5% glycerol, 25 C 60 min; crosslinking: same buffer, 22 C 1 h, then UV on ice 20 min; conditions: protein: recombinant; tags: His6-SUMO (A); GST and FLAG (B); copies: 1;1
T1 sequence 1: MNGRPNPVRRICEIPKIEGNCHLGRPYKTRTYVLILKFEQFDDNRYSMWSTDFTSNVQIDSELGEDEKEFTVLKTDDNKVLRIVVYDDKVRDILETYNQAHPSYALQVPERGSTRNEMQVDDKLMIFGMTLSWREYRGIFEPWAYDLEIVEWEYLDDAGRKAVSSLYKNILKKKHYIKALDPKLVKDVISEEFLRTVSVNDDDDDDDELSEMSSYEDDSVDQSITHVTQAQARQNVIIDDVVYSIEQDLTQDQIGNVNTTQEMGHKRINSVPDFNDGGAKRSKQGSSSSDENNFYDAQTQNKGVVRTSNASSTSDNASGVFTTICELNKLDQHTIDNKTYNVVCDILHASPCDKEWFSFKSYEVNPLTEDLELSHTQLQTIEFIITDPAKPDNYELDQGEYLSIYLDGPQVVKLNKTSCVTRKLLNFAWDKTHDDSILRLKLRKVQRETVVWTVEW
T1 sequence 2: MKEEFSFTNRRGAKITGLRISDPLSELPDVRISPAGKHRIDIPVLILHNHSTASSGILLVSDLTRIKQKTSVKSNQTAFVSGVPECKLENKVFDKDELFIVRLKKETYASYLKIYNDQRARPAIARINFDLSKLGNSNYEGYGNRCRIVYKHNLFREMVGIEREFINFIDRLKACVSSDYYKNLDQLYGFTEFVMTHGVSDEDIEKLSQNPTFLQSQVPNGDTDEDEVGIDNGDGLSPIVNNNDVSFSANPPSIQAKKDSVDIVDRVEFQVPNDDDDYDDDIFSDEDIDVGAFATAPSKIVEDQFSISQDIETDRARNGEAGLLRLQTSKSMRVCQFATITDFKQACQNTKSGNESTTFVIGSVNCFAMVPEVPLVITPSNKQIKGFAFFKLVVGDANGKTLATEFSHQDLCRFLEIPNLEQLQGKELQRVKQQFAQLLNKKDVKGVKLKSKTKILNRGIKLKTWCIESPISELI

[3] = biological target: T1, CpCdc13AB heterodimer: His6-SUMO-Cdc13A …; experiment: competition; affinity unaffected; EMSA: 50 mM Tris-HCl pH 7.5, 2 mM MgCl2, 10 mM NaCl, 1 mM spermidine, 1 mM DTT, 200 ng/ul poly(dI-dC), 5% glycerol, 25 C 60 min; crosslinking: same buffer, 22 C 1 h, then UV on ice 20 min; conditions: protein: recombinant; tags: His6-SUMO (A); GST and FLAG (B); copies: 1;1
[4] = biological target: T1, CpCdc13AB heterodimer: His6-SUMO-Cdc13A …; experiment: EMSA; EMSA: 50 mM Tris-HCl pH 7.5, 2 mM MgCl2, 10 mM NaCl, 1 mM spermidine, 1 mM DTT, 200 ng/ul poly(dI-dC), 5% glycerol, 25 C 60 min; crosslinking: same buffer, 22 C 1 h, then UV on ice 20 min; conditions: protein: recombinant; tags: His6-SUMO (A); GST and FLAG (B); copies: 1;1
[5] = biological target: T1, CpCdc13AB heterodimer: His6-SUMO-Cdc13A …; experiment: UV photo-crosslinking; lower product level than IO-1 and IO-3; EMSA: 50 mM Tris-HCl pH 7.5, 2 mM MgCl2, 10 mM NaCl, 1 mM spermidine, 1 mM DTT, 200 ng/ul poly(dI-dC), 5% glycerol, 25 C 60 min; crosslinking: same buffer, 22 C 1 h, then UV on ice 20 min; conditions: protein: recombinant; tags: His6-SUMO (A); GST and FLAG (B); copies: 1;1; label: 32P
[6] = biological target: T1, CpCdc13AB heterodimer: His6-SUMO-Cdc13A …; experiment: competition; vs CpG2 probe; EMSA: 50 mM Tris-HCl pH 7.5, 2 mM MgCl2, 10 mM NaCl, 1 mM spermidine, 1 mM DTT, 200 ng/ul poly(dI-dC), 5% glycerol, 25 C 60 min; crosslinking: same buffer, 22 C 1 h, then UV on ice 20 min; conditions: protein: recombinant; tags: His6-SUMO (A); GST and FLAG (B); copies: 1;1
[7] = biological target: T1, CpCdc13AB heterodimer: His6-SUMO-Cdc13A …; experiment: as above; conditions: protein: recombinant; tags: His6-SUMO (A); GST and FLAG (B); copies: 1;1; remark: listed apart in the source
[8] = biological target: T1, CpCdc13AB heterodimer: His6-SUMO-Cdc13A …; experiment: competition; no effect of truncation; EMSA: 50 mM Tris-HCl pH 7.5, 2 mM MgCl2, 10 mM NaCl, 1 mM spermidine, 1 mM DTT, 200 ng/ul poly(dI-dC), 5% glycerol, 25 C 60 min; crosslinking: same buffer, 22 C 1 h, then UV on ice 20 min; conditions: protein: recombinant; tags: His6-SUMO (A); GST and FLAG (B); copies: 1;1
[9] = biological target: T1, CpCdc13AB heterodimer: His6-SUMO-Cdc13A …; experiment: EMSA; apparent Kd; EMSA: 50 mM Tris-HCl pH 7.5, 2 mM MgCl2, 10 mM NaCl, 1 mM spermidine, 1 mM DTT, 200 ng/ul poly(dI-dC), 5% glycerol, 25 C 60 min; crosslinking: same buffer, 22 C 1 h, then UV on ice 20 min; conditions: protein: recombinant; tags: His6-SUMO (A); GST and FLAG (B); copies: 1;1
[10] = biological target: T1, CpCdc13AB heterodimer: His6-SUMO-Cdc13A …; experiment: competition; inactive as competitor; EMSA: 50 mM Tris-HCl pH 7.5, 2 mM MgCl2, 10 mM NaCl, 1 mM spermidine, 1 mM DTT, 200 ng/ul poly(dI-dC), 5% glycerol, 25 C 60 min; crosslinking: same buffer, 22 C 1 h, then UV on ice 20 min; conditions: protein: recombinant; tags: His6-SUMO (A); GST and FLAG (B); copies: 1;1
[11] = biological target: T1, CpCdc13AB heterodimer: His6-SUMO-Cdc13A …; experiment: UV photo-crosslinking; Cdc13A adducts; EMSA: 50 mM Tris-HCl pH 7.5, 2 mM MgCl2, 10 mM NaCl, 1 mM spermidine, 1 mM DTT, 200 ng/ul poly(dI-dC), 5% glycerol, 25 C 60 min; crosslinking: same buffer, 22 C 1 h, then UV on ice 20 min; conditions: protein: recombinant; tags: His6-SUMO (A); GST and FLAG (B); copies: 1;1; label: 32P
[12] = biological target: T1, CpCdc13AB heterodimer: His6-SUMO-Cdc13A …; experiment: UV photo-crosslinking; mostly Cdc13B adducts; EMSA: 50 mM Tris-HCl pH 7.5, 2 mM MgCl2, 10 mM NaCl, 1 mM spermidine, 1 mM DTT, 200 ng/ul poly(dI-dC), 5% glycerol, 25 C 60 min; crosslinking: same buffer, 22 C 1 h, then UV on ice 20 min; conditions: protein: recombinant; tags: His6-SUMO (A); GST and FLAG (B); copies: 1;1; label: 32P

For ATTATACTGAGGTCCGGATGTTG [CpG1], which Kd [1] is on record?
Its Kd is over 1000 nM.

Does ATTACATTGAGGTCCGGATGTTG (ssDNA) [CpG1-Ct2] bind [2]?
Result: binds

Does ATTATACTGAGGTCCGGATGTCA (ssDNA) [CpG1-Ct4] bind [3]?
Result: binds

ATTATACTGAGGTCCGGATGTTG (ssDNA) [CpG1] was tested. Which Kd [4] did it give?
The Kd was about 10 nM.

Does ATTATACTGAGGTCCGGATGTTG (ssDNA, 5-iodo-dU at T13 of CpG1) [IO-2] bind [5]?
Result: binds

For CTGATGTTCTTTAGGGAGGTACTGATGTTCTTTAGGGAGGTA (ssDNA) [ClG2], which binding signal [6] is on record?
The binding signal was ~20 fold higher concentration for 50% inhibition.

Does CGATTACTGAGGTCCGGATGTTG (ssDNA) [CpG1-Ct1] bind [3]?
Result: binds

Does GTGGGTGTGTGGGTGTGTGGGTGTGTGGGTGTGT (ssDNA) [ScTG34] bind [7]?
Result: no binding

Does TACTGAGGTCCGGATGTTG (ssDNA) [CpG1-Δ1] bind [8]?
Result: binds

How did the Kd [9] turn out when ATTATACTGAGGTCCGGATGTTGATTATACTGAGGTCCGGATGTTG (ssDNA) [CpG2] was run?
Its Kd is about 7.07 nM.

Does ATTATACTGAGGTCCGGAT (ssDNA) [CpG1-Δ4] bind [10]?
Result: no binding

Does ATTATACTGAGGTCCGGATGTTG (ssDNA, 5-iodo-dU at T19 of CpG1) [IO-3] bind [11]?
Result: binds

Does GATCATTGGTGTACGGATGTCACGATCATTGGTGTACGGATGTCAC (ssDNA) [CtG2] bind [7]?
Result: no binding

Does CCGGATGTTGATTATACTGAGGT (ssDNA) [CpG1b] bind [7]?
Result: no binding

Does ATTATACTGAGGTCCGGATGTTG (ssDNA, 5-iodo-dU at T8 of CpG1) [IO-1] bind [12]?
Result: binds
